Test results: PMC4072508, “Genome-Wide Prediction and Validation of Peptides That Bind Human Prosurvival Bcl-2 Proteins” (PLoS Computational Biology, 2014)

T1: Mcl-1, Q07820
T1 chain: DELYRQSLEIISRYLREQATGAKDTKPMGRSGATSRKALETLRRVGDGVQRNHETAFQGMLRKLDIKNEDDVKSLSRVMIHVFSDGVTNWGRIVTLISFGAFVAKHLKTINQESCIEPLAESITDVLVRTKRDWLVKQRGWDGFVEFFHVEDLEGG

B1: SYNGAP1 (peptide)
chain: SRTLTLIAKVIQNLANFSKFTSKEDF
B2: GCN1L1 (peptide)
chain: EEVFQSLSKILDVASLEVLNEVNRRS
B3: RAD51L3 (peptide)
chain: KTVVDLVSADLEEVAQKCGLSYKAEA
B4: DFFB (peptide)
chain: PQRQRLLADLLHNVSQNIAAETRAED
B5: DAGLB (peptide)
chain: EVQDRLAHKGISQAARYVYQRLINDG
B6: BARD1 (peptide)
chain: PKPDSDVTQTINTVAYHARPDSDQRF
B7: GLDC (peptide)
chain: HNATLILSEGLKRAGHQLQHDLFFDT
B8: CLEC12A (peptide)
chain: SNKIRNLSTTLQTIATKLCRELYSKE
B9: ACCN3 (peptide)
chain: AAVVLSVATFLYQVAERVRYYREFHH
B10: LPXN (peptide)
chain: HPEHFVCAFCLTQLSKGIFREQNDKT
B11: HEATR7B2 (peptide)
chain: ERMKGTFCIALEKFSKAIYKYVNHWR
B12: TACC2 (peptide)
chain: LEGFRKNEEVLKRCAQEYLSRVKKEE
B13: CHD2 (peptide)
chain: PFNKEELTAILKFGAEDLFKELEGEE
B14: MACF1 (peptide)
chain: LGKRTGTVQVLKRSGRELIENSRDDT
B15: SI (peptide)
chain: QISTRLPSDYIYGIGEQVHKRFRHDL
B16: HEATR6 (peptide)
chain: PSIQLHGAKLLEELGTGLIQQYKPDS
B17: C1orf125 (peptide)
chain: SKVRERYVQMLDQIARQMIDFYKDLV
B18: SCAND3 (peptide)
chain: PLSNDTIARRIQELANDMEDQLIEQI
B19: FASTK (peptide)
chain: KVRAHHYSVALRRLGQLLGSRPRPPP
B20: STX10 (peptide)
chain: LEMVSGSIQVLKHMSGRVGEELDEQG
B21: KIAA1383 (peptide)
chain: RTGDIALAYRLTDLGSRLLSQLERPL
B22: STOML1 (peptide)
chain: ADLRALLCRELRPLGAYMSGRLKVKG
B23: BCL2 (peptide)
chain: SPVPPVVHLTLRQAGDDFSRRYRRDF
B24: C19orf51 (peptide)
chain: EITQHNVTELLRDVAAWGRARATGGD
B25: LRRN1 (peptide)
chain: VMGSMFAVISLASIAVYFAKRFKRKN
B26: NOTCH3 (peptide)
chain: EELLRSSADFLQRLSAILRTSLRFRL
B27: CCT3 (peptide)
chain: CKDPKACTILLRGASKEILSEVERNL
B28: CCDC24 (peptide)
chain: IIKDQLNVSNIDQVARHLRGLLEEEC
B29: ARHGAP4 (peptide)
chain: AEVELEYSRGLEKLAERFSSRGGRLG
B30: MYH10 (peptide)
chain: DPLNDNVATLLHQSSDRFVAELWKDV
B31: BCL2L11 (peptide)
chain: MRPEIWIAQELRRIGDEFNAYYARRV
B32: GINS1 (peptide)
chain: FEVDDGTSVLLKKNSQHFLPRWKCEQ
B33: NTRK2 (peptide)
chain: QDKILVAVKTLKDASDNARKDFHREA
B34: CCT5 (peptide)
chain: EQAARVAIEHLDKISDSVLVDIKDTE
B35: SPG20 (peptide)
chain: VKGAEITGKAIQKGASKLRERIQPEE
B36: PMAIP1 (peptide)
chain: AELEVECATQLRRFGDKLNFRQKLLN
B37: MAGEE1 (peptide)
chain: KEYRNQFPEILRRAAAHLECIFRFEL
B38: PGLS (peptide)
chain: QPHTGKLCWFLDEAAARLLTVPFEKH
B39: SNTG2 (peptide)
chain: NATHEEVVHLLRNALDEVTITVEYLR
B40: TXNDC11 (peptide)
chain: TRELQELARKDQELADASENLLTENT
B41: MED17 (peptide)
chain: KKSLAGAAQILLKGAERLTKSVTENQ
B42: PGS1 (peptide)
chain: LPGRPGLAALLGRLSDRLGRNRDRQR
B43: SNTG2 (peptide)
chain: NATHEEVVHLDRNAGDEVTITVEYLR
B44: GALNT10 (peptide)
chain: VPAGVSLARNLKRVAEVWMDEYAEYI
B45: APOL4 (peptide)
chain: KGAKSESAESLRQWAQELEENLNELT
B46: XXXX (peptide)
chain: EEITSDAAYVIQDLATLFEELQREKK
B47: RASAL2 (peptide)
chain: SRTLTLIAKVIQNLANFAKFGNKEEY
B48: DEPDC5 (peptide)
chain: LFIPLNISCLLKEGSEHLFDSFEPET
B49: SLITRK6 (peptide)
chain: QLQTLPYVGFLEHIGRILDLQLEDNK
B50: CD2BP2 (peptide)
chain: LLPRETVAGALRRLGARGGGKGRKGP
B51: ZFPM2 (peptide)
chain: ITMVPQASEILAKMSELVHRRLRHGS
B52: FIGNL2 (peptide)
chain: DISALTASNLLKRYAEKYSGVLDSPY
B53: NAT10 (peptide)
chain: EPTMKTLSDDLDEAAKEFQEKHKKEV
B54: GRIK5 (peptide)
chain: ERFEGFCVDMLRELAELLRFRYRLRL

Biological target: T1, Mcl-1, Q07820
Assay: peptide SPOT array, c-Myc-tagged receptor at 1 uM or 100 nM, anti-c-Myc-Cy3

SPOT signal as a fraction of Bim BH3's signal on the same receptor and array | Binder
0.14 | B2
0.01 | B3
0.02 | B4
0.16 | B5
0.01 | B6
0.02 | B7
0.17 | B8
0.03 | B9
0.03 | B10
0.37 | B11
0.04 | B12
0.01 | B13
0.05 | B14
0.12 | B15
0.01 | B16
0.03 | B17
0.02 | B18
0.14 | B19
0.02 | B20
0.03 | B21
0.37 | B22
0.26 | B23
0.02 | B24
0.13 | B25
0.11 | B26
0.02 | B27
0.02 | B28

SPOT signal as a fraction of Bim BH3's signal on the same receptor and array | Binder
0.02 | B29
0.02 | B30
1 | B31
0.05 | B32
0.02 | B33
0.01 | B34
0.02 | B35
0.85 | B36
0.02 | B37
0.02 | B38
0.01 | B39
0.01 | B40
0.03 | B41
0.24 | B42
0.01 | B43
0.02 | B44
0.01 | B45
0.02 | B46
0.08 | B47
0.02 | B48
0.02 | B49
0.13 | B50
0.1 | B51
0.03 | B52
0.01 | B53
0.11 | B54

Binder | SPOT signal as a fraction of Bim BH3's signal on the same receptor and array
B1 | 0.08
